Experimental data as given in patent US20040147432A1 (MERCK, published 2004).
Read-outs that look alike come from different tables or passages of the source. Blank lines part the entries; values can stand above or below the binder they belong to. Bridges are numbered along the chain shown (N, C = ends). Where no end group is shown, it is not given here. [ ]: non-standard residue; d: D form. Aib = CC(C)(N)C(=O)O

What was measured:
[1] = target: T1, human MCH-1R (human, UniProt Q99705 1-353); assay: cell-based or functional assay
[2] = target: T2, human melanin concentrating hormone type 2 receptor (MCH-2R) (human, UniProt Q969V1 1-340); assay: cell-based or functional assay
[3] = target: T1, human MCH-1R; assay: SPA competition with [125I]-human MCH (Phe13, Tyr19) on receptor membranes
Experimental: (§1) For the SPA-based assay, WGA-PVT beads (NEN Life Sciences Products) were resuspended in Dulbecco's PBS with calcium and magnesium (500 mg beads in 4 ml PBS). […] The suspension was mixed gently for 20 minutes, 12.3 ml of assay buffer and protease inhibitors were added (final concentration given): 2 μg/ml leupeptin, 10 μM phosphoramidon, 40 μg/ml bacitracin, 5 μg/ml aprotinin, 0.1 mM Pefabloc.
(§2) Coated beads were kept on ice until use. […] Binding reactions were allowed to proceed at room temperature for 3 hours. Quantitation was performed by scintillation counting (TopCount device).

[4] = target: T2, human melanin concentrating hormone …; assay: as above
Experimental: as §1, §2

[5] = target: T2, human melanin concentrating hormone …; assay: as above; remark: listed apart in the source
Experimental: as §1, §2

[6] = target: T2, human melanin concentrating hormone …; assay: cell-based or functional assay; remark: listed apart in the source
[7] = target: T1, human MCH-1R; assay: SPA competition with [125I]-human MCH (Phe13, Tyr19) on receptor membranes; remark: listed apart in the source
Experimental: as §1, §2

[8] = target: T1, human MCH-1R; assay: cell-based or functional assay; remark: listed apart in the source

T1 sequence (Q99705 whole entry, form in doubt): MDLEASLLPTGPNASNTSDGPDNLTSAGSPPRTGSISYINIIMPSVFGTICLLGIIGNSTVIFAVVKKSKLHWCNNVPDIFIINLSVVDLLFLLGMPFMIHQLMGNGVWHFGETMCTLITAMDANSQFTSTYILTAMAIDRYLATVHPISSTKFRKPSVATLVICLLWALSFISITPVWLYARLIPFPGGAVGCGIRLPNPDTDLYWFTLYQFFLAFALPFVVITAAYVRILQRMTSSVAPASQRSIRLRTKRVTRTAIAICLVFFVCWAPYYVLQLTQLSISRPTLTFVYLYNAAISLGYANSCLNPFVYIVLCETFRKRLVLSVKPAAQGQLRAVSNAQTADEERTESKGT
T2 sequence (Q969V1 whole entry, form in doubt): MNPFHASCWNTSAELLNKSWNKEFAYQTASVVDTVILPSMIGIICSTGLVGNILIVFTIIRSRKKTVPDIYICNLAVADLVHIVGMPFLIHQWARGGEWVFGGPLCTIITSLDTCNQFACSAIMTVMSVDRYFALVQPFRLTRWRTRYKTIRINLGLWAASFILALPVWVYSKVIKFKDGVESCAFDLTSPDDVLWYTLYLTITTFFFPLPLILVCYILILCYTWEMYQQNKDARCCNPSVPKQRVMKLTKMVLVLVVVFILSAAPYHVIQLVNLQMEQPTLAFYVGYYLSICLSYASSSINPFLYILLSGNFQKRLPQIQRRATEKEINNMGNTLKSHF

Activation % at 10 µM (aequorin functional assay) [1]: 40%
EC50 (aequorin functional assay) [1]: 1.36 µM
Activation % at 10 µM (aequorin functional assay) [2]: 103%
EC50 (aequorin functional assay) [2]: 0.016 µM
IC50 [3]: 0.49 µM
IC50 [4]: 0.0032 µM
B1: SEQ. ID. NO. 13 (peptide)
peptide: Ac-RCML[dA]RVYRPC-NH2
modifications: disulfide 2-11
SMILES: CSCC[C@@H]1NC(=O)[C@@H](NC(=O)[C@H](CCCNC(=N)N)NC(C)=O)CSSC[C@@H](C(N)=O)NC(=O)[C@@H]2CCCN2C(=O)[C@H](CCCNC(=N)N)NC(=O)[C@H](Cc2ccc(O)cc2)NC(=O)[C@H](C(C)C)NC(=O)[C@H](CCCNC(=N)N)NC(=O)[C@@H](C)NC(=O)[C@H](CC(C)C)NC1=O
notes: also called D-Ala^10

EC50 (aequorin functional assay) [1]: > 1 µM
Activation % at 10 µM (aequorin functional assay) [2]: 39%
EC50 (aequorin functional assay) [2]: > 10 µM
% @ concentration [3]: 80 % @ 1 µM
IC50 [4]: 0.0049 µM
B2: SEQ. ID. NO. 25 (peptide)
peptide: RCMLGXVYRPC
modifications: Arg(NO2)^11 (nitroarginine)
notes: also called Arg(NO2)^11

Activation % at 10 µM (aequorin functional assay) [1]: 5%
EC50 (aequorin functional assay) [1]: > 10 µM
Activation % at 10 µM (aequorin functional assay) [2]: 102%
EC50 (aequorin functional assay) [2]: 0.025 µM
IC50 [3]: 0.018 µM
IC50 [4]: 0.047 µM
B3: SEQ. ID. NO. 17 (peptide)
peptide: Ac-RCML[dF]RVYRPC-NH2
modifications: disulfide 2-11 (inferred)
notes: also called D-Phe^10

Activation % at 10 µM (aequorin functional assay) [1]: 22%
EC50 (aequorin functional assay) [1]: 1.9 µM
Activation % at 10 µM (aequorin functional assay) [2]: 104%
EC50 (aequorin functional assay) [2]: 0.024 µM
IC50 [3]: 0.09 µM
IC50 [4]: 0.0022 µM
B4: SEQ. ID. NO. 11 (peptide)
peptide: Ac-RCML[Aib]RVYRPC-NH2
modifications: disulfide 2-11
SMILES: CSCC[C@@H]1NC(=O)[C@@H](NC(=O)[C@H](CCCNC(=N)N)NC(C)=O)CSSC[C@@H](C(N)=O)NC(=O)[C@@H]2CCCN2C(=O)[C@H](CCCNC(=N)N)NC(=O)[C@H](Cc2ccc(O)cc2)NC(=O)[C@H](C(C)C)NC(=O)[C@H](CCCNC(=N)N)NC(=O)C(C)(C)NC(=O)[C@H](CC(C)C)NC1=O
notes: also called Aib^10

Activation % at 10 µM (aequorin functional assay) [1]: 72%
EC50 (aequorin functional assay) [1]: 1.2 µM
Activation % at 10 µM (aequorin functional assay) [2]: 43%
EC50 (aequorin functional assay) [2]: > 10 µM
IC50 [3]: 0.0069 µM
IC50 [4]: 0.0004 µM
B5: SEQ. ID. NO. 24 (peptide)
peptide: RCMLGXVYRPC
modifications: Harg^11 (homoarginine)
notes: also called Harg^11

Activation % at 10 µM (aequorin functional assay) [1]: 0.1%
EC50 (aequorin functional assay) [1]: > 10 µM
Activation % at 10 µM (aequorin functional assay) [2]: 80%
EC50 (aequorin functional assay) [2]: 0.14 µM
IC50 [3]: 0.0029 µM
IC50 [4]: 0.312 µM
B6: SEQ. ID. NO. 12 (peptide)
peptide: RCMLXRVYRPC
modifications: Phg^10 (phenylglycine)
notes: also called Phg^10

Activation % at 10 µM (aequorin functional assay) [1]: 39%
EC50 (aequorin functional assay) [1]: 3 µM
Activation % at 10 µM (aequorin functional assay) [2]: 106%
EC50 (aequorin functional assay) [2]: 0.024 µM
IC50 [3]: 0.097 µM
IC50 [4]: 0.0023 µM
B7: SEQ. ID. NO. 18 (peptide)
peptide: Ac-RCML[dN]RVYRPC-NH2
modifications: disulfide 2-11 (inferred)
notes: also called D-Asn^10

IC50 [5]: 0.0021 µM
Activation % at 10 µM (aequorin functional assay) [6]: 96%
EC50 (aequorin functional assay) [6]: 0.115 µM
B8: SEQ. ID. NO. 41 (peptide)
peptide: AFDMLRCMLGRVYRPCWQV
modifications: disulfide 7-16
notes: positions 1-19 as in hMCH; also called Ala^1

IC50 [7]: 0.0045 µM
IC50 [5]: 0.2 µM
Activation % at 10 µM (aequorin functional assay) [8]: 81%
EC50 (aequorin functional assay) [8]: 0.161 µM
Activation % at 10 µM (aequorin functional assay) [6]: 76%
EC50 (aequorin functional assay) [6]: 0.853 µM
B9: SEQ. ID. NO. 46 (peptide)
peptide: DFDMLACMLGRVYRPCWQV
modifications: disulfide 7-16
notes: also called Ala^6

IC50 [7]: 0.0019 µM
IC50 [5]: 0.019 µM
Activation % at 10 µM (aequorin functional assay) [8]: 99%
EC50 (aequorin functional assay) [8]: 0.0347 µM
Activation % at 10 µM (aequorin functional assay) [6]: 96%
EC50 (aequorin functional assay) [6]: 0.0842 µM
B10: SEQ. ID. NO. 53 (peptide)
peptide: DFDMLRCMLGRVYRACWQV
modifications: disulfide 7-16
notes: also called Ala^15

IC50 [7]: 0.0005 µM
IC50 [5]: 0.0012 µM
Activation % at 10 µM (aequorin functional assay) [8]: 97%
EC50 (aequorin functional assay) [8]: 0.0302 µM
Activation % at 10 µM (aequorin functional assay) [6]: 95%
EC50 (aequorin functional assay) [6]: 0.0572 µM
B11: SEQ. ID. NO. 43 (peptide)
peptide: DFAMLRCMLGRVYRPCWQV
modifications: disulfide 7-16
notes: also called Ala^3

IC50 [7]: 0.0001 µM
IC50 [5]: 0.0051 µM
Activation % at 10 µM (aequorin functional assay) [8]: 100%
EC50 (aequorin functional assay) [8]: 0.0068 µM
Activation % at 10 µM (aequorin functional assay) [6]: 95%
EC50 (aequorin functional assay) [6]: 0.0542 µM
B12: SEQ. ID. NO. 54 (peptide)
peptide: DFDMLRCMLGRVYRPCAQV
modifications: disulfide 7-16
notes: also called Ala^17
